Test results reported in US20240209100A1 (DIAGONAL THERAPEUTICS, published 2024).

Tests used:
[1] = target: T1, IL-18 receptor (IL-18Rα/IL-18Rβ) overexpressed on HEK-Blue IL-18 cells (Homo sapiens (Human), UniProt Q13478 19-541; O95256 20-599); experiment: cell-based or functional assay
T1 sequence 1: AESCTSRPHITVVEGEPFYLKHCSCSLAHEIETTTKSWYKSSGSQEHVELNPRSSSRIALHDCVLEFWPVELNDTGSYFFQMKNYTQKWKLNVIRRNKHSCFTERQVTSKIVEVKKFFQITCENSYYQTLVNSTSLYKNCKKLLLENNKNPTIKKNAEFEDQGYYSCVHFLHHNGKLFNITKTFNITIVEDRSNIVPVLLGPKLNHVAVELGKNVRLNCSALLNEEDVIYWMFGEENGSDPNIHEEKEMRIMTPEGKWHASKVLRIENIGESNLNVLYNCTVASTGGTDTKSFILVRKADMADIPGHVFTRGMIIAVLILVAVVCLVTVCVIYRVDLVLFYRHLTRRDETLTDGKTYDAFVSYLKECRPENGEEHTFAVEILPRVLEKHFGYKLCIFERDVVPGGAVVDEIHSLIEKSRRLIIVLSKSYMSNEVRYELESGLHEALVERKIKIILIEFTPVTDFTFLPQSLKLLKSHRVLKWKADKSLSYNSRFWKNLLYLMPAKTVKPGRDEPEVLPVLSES
T1 sequence 2: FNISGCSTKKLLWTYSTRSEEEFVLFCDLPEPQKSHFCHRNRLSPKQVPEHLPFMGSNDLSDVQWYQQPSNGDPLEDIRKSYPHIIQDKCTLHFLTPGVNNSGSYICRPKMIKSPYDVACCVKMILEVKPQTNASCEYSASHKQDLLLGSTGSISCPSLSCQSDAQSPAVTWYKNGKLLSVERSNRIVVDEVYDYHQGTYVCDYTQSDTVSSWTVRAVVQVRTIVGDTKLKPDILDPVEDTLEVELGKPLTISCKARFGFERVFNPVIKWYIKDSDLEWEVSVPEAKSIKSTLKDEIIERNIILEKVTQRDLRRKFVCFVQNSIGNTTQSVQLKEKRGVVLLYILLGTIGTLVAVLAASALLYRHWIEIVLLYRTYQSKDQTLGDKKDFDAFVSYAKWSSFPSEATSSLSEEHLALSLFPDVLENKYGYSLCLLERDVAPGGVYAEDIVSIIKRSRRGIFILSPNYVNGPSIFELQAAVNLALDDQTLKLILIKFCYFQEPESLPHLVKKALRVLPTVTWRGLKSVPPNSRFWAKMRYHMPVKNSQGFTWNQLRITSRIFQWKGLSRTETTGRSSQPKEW

[2] = target: T2, IL-18 receptor (IL-18Rα/IL-18Rβ) on human PBMCs (human, UniProt Q13478 19-541; O95256 20-599); experiment: cell-based or functional assay
T2 sequence 1: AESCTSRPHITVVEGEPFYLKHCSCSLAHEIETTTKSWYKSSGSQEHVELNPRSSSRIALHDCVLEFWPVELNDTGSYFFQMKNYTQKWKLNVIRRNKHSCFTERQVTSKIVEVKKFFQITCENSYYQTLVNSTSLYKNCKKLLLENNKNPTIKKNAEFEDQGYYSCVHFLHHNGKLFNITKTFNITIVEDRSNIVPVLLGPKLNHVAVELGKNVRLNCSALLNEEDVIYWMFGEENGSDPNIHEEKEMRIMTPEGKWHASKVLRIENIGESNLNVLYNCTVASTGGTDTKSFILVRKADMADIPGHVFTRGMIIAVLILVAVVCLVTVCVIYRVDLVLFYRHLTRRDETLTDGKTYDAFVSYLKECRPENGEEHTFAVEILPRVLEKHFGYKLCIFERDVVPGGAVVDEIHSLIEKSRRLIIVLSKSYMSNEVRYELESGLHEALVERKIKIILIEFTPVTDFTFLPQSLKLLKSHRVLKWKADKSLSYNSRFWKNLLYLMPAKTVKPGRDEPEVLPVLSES
T2 sequence 2: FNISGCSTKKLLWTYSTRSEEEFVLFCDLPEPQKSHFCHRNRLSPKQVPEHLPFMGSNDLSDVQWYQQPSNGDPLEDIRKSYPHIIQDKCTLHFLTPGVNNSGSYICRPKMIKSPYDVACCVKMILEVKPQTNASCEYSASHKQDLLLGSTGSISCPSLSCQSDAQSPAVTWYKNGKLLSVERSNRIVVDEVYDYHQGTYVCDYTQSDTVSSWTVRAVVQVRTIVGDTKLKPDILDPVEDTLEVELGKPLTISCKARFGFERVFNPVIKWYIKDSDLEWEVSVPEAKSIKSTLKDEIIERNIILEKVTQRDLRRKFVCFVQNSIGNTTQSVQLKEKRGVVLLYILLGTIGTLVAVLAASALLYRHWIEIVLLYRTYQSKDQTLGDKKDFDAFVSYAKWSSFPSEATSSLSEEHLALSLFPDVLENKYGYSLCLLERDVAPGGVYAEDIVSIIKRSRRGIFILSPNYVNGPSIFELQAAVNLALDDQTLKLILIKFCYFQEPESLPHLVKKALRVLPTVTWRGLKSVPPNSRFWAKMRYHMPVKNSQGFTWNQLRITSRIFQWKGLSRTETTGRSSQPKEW

[3] = target: T3, human IL-18Rα (human, UniProt Q13478 19-329, limits assumed); experiment: SPR (Carterra LSA), antibody captured on anti-human IgG-Fc, monomeric antigen as analyte, 25 C
T3 construct: Monomeric antigen injected in SPR; also called huIL18Ra; IL-18R alpha
T3 sequence: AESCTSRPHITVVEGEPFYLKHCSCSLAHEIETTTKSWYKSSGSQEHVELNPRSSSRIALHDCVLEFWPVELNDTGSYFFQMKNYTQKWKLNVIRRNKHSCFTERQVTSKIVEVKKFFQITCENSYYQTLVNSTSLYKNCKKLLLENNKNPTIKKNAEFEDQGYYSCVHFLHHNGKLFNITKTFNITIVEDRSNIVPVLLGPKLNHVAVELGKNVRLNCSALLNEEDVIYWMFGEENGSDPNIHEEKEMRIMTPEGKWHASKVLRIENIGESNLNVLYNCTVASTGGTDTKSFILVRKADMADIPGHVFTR
Method: (§1) SPR experiments were performed using Carterra LSA equipped with an HC30M chip (Carterra-Bio). Binding assays were carried out at 25° C. with HBSTE (10 mM HEPES ph7.4, 150 mM NaCl, 3 mM EDTA, 0.05% Tween-20) with 0.5 g/L BSA. A density of anti-human IgG-Fc capture lawn was established on an HC30M chip using amine coupling. […] Coupling of goat anti-human IgG (H+L) multi-species SP ads-UNLB (Southern Biotech, 2087-01) with standard immobilization was done for 15 minutes in 10 mM sodium acetate pH 4.5 and quenched using 1M ethanolamine HCl PH8.5. The anti-human IgG-Fc capture surface was then used to capture a panel of antibodies at 20 μg/mL. Monomeric antigen for human IL-18Rα, human IL-18Rβ, cynomolgus IL-18Rα, or rhesus IL-18Rβ targeted by the antibodies was injected over the captured antibody array at 6 concentrations in 4-fold dilution series starting at 500 nM. Binding data was referenced and blanked from a buffer injected, then globally fit to a 1:1 Langmuir binding model for estimation of ka, kd, and KD using Carterra Kinetics Software.

[4] = target: T4, human IL-18Rβ (human, UniProt O95256 20-356, limits assumed); experiment: as above
T4 construct: Monomeric antigen injected in SPR; also called IL-18R beta; IL-18Rb
T4 sequence: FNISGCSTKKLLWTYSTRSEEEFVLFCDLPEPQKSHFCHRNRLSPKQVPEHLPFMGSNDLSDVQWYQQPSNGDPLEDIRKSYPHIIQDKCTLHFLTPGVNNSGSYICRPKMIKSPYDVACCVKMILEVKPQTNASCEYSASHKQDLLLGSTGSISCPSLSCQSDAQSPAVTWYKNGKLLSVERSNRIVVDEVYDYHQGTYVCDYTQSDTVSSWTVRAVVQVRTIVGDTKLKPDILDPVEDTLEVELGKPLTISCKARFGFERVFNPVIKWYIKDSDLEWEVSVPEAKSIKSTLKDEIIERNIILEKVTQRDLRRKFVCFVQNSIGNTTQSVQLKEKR
Method: as §1

[5] = target: T5, cynomolgus IL-18Rα (cynomolgus, UniProt A0A2K5V3J9 19-328); experiment: as above
T5 construct: also called Cyno IL-18Rα; non-human primate IL-18Rα
T5 sequence: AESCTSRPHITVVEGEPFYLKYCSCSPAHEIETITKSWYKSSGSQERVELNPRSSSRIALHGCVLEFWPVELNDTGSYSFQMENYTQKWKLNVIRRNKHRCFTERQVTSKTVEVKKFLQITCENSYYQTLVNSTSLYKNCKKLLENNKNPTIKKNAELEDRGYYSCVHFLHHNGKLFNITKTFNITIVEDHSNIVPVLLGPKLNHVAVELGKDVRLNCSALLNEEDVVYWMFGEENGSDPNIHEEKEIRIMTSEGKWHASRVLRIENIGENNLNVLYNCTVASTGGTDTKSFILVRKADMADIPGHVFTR
Method: as §1

[6] = target: T1, IL-18 receptor (IL-18Rα/IL-18Rβ) …; experiment: cell-based or functional assay; remark: listed apart in the source
[7] = target: T6, rhesus IL-18Rβ (rhesus, UniProt F7HHC1 20-356); experiment: SPR (Carterra LSA), antibody captured on anti-human IgG-Fc, monomeric antigen as analyte, 25 C
T6 construct: also called non-human primate IL-18Rβ
T6 sequence: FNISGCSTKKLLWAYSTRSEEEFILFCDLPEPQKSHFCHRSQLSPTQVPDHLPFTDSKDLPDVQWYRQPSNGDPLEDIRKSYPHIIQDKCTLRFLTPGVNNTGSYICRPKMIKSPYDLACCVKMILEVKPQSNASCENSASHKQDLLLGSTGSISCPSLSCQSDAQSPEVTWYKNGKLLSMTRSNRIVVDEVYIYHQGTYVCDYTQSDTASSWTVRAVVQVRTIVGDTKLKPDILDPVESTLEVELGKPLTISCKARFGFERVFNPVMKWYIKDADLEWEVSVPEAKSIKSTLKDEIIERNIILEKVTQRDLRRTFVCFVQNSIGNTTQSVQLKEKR
Method: as §1

B1: DGL620 (bispecific antibody)
heavy 1: EVQLLESGGGLVQPGGSLRLSCAASGRTFSKHAMGWFRQAPGKGLEFVSAIDWSGGSTYYADSVKGRFTISRDNSKNTVYLQMNSLRAEDTAVYYCAADSYTDYAQLWLPELESEYDYWGQGTLVTVSSCPPCPAPEAAGAPSVFLFPPKPKDTLYITREPEVTCVVVDVSHEDPEVKFNWYVDGVEVHNAKTKPREEQYNSTYRVVSVLTVLHQDWLNGKEYKCKVSNKALPAPIEKTISKAKGQPREPQVCTLPPSRDELTKNQVSLSCAVKGFYPSDIAVEWESNGQPENNYKTTPPVLDSDGSFFLVSKLTVDKSRWQQGNVFSCSVMHEALHNHYTQKSLSLSPG
heavy 2: QLQLLESGGGLVQAGGSLRLSCAASRSITFSHNVMGWYRQAPGKGRELVSSIGSGGSTNYVDSVKGRFTISRDNSKKTLYLQMNSLRAEDTAVYYCGVVVGVYRGSLGQGTLVTVSSCPPCPAPEAAGAPSVFLFPPKPKDTLYITREPEVTCVVVDVSHEDPEVKFNWYVDGVEVHNAKTKPREEQYNSTYRVVSVLTVLHQDWLNGKEYKCKVSNKALPAPIEKTISKAKGQPREPQVYTLPPCRDELTKNQVSLWCLVKGFYPSDIAVEWESNGQPENNYKTTPPVLDSDGSFFLYSKLTVDKSRWQQGNVFSCSVMHEALHNHYTQKSLSLSPG
EC50 (read off the curve), HEK Blue IL-18 SEAP reporter [1]: ~1 nM
PBMC: calculated maximum induction of IFNγ after 24 hours, donor 1 [2]: 16000
PBMC: calculated maximum induction of IFNγ after 24 hours, donor 2 [2]: 1300
PBMC: calculated maximum induction of IFNγ after 24 hours, donor 3 [2]: 22000
PBMC: calculated maximum induction of IFNγ after 24 hours, donor 4 [2]: 19000
PBMC: calculated maximum induction of IFNγ after 24 hours, donor 5 [2]: 15000
PBMC: calculated maximum induction of IFNγ after 24 hours, donor 6 [2]: 2400
Kd [3]: 8 nM
Kd [4]: 14 nM
Kd [5]: 10 nM
HEK-Blue IL-18: Abs 405 at 100 nM [6]: 1.87 Abs
HEK-Blue IL-18: Fold over Background [6]: 10.1 fold

B2: DGL336 (bispecific antibody, V domains shown)
V domain 1: EVQLLESGGGLVQPGGSLRLSCAASGRTFSKHAMGWFRQAPGKGLEFVSAIDWSGGSTYYADSVKGRFTISRDNSKNTVYLQMNSLRAEDTAVYYCAADSYTDYAQLWLPELESEYDYWGQGTLVTVSS
V domain 2: EVQLVESGGGLIQPGGSLRLSCAASGSISSRDTMGWYRQAPGKGREMVSVISSSGNTNYADSVLGRFTISRDNAKNTVYLQMNALRAEDTAVYKCYAHRTYGVDYWGQGTLVTVSS
notes: humanized VHH-Fc heterodimer
PBMC: calculated maximum induction of IFNγ after 24 hours, donor 1 [2]: 13000
PBMC: calculated maximum induction of IFNγ after 24 hours, donor 2 [2]: 620
PBMC: calculated maximum induction of IFNγ after 24 hours, donor 3 [2]: 17000
PBMC: calculated maximum induction of IFNγ after 24 hours, donor 4 [2]: 9300
PBMC: calculated maximum induction of IFNγ after 24 hours, donor 5 [2]: 1500
PBMC: calculated maximum induction of IFNγ after 24 hours, donor 6 [2]: 1300
Kd [3]: 11 nM
Kd [7]: 15 nM
Kd [4]: 3.2 nM
Kd [5]: 14 nM
HEK-Blue IL-18: Abs 405 at 100 nM [6]: 0.9 Abs
HEK-Blue IL-18: Fold over Background [6]: 4.9 fold
